These results are taken from the RNAGym collection of RNA variant scans (doi:10.1021/acssynbio.7b00057).

B1: Pistol ribozyme (parent)
chain: GGGUCGUUGUUCCAUAAUCGCGUGGAUAUGGCACGCAAGUUUCUACCGGGCACCGUAAAUGUCCGACUGGAGCCGUUCGGGCGGCUAUAAACAGACCUCAGGCCCGAAGCGUGGCGGCACCUGCCGCCGGUGGUAAAAAAGAUCGGAAGAGCACACGUCU

Variants of B1 are the subject of the series. In words: aptazyme ON/OFF ratio, guanine; higher = stronger switching; co-transcriptional cleavage with and without guanine.
U8C G9A U10A C13U: the “aptazyme ON/OFF ratio” value was found to be 1.42.

With U7C U8A G9C U10G U11G C12U C13A, the “aptazyme ON/OFF ratio” value was found to be 1.12.

Turning to U8G G9U U10C U11C C12A C13A, the “aptazyme ON/OFF ratio” value amounted to 1.05.

On to U7G U8A G9C U11G C12G C13G, for which the “aptazyme ON/OFF ratio” value is 1.03.

For the variant U7A U8A G9U U10A C12A C13A, the “aptazyme ON/OFF ratio” value amounted to 1.34.

Turning to U8C G9U U11A C12A C13U, the “aptazyme ON/OFF ratio” value came to 1.34.

For the variant U8C G9U U11A C12A C13G, the “aptazyme ON/OFF ratio” value is 1.16.

For the variant U8C G9C U10C C12G C13A, the “aptazyme ON/OFF ratio” value is 1.07.

Regarding U7G G9C U11A C12G C13U, the “aptazyme ON/OFF ratio” value amounted to 1.36.

G9C U10C U11C C12U C13G: the “aptazyme ON/OFF ratio” value was 1.01.

For U7A G9C U10G U11G C12A, the “aptazyme ON/OFF ratio” value was found to be 1.11.

In the case of U7C U8G G9U U11G C12U C13A, the “aptazyme ON/OFF ratio” value amounted to 1.32.

As for U7A G9U U10G U11G, the “aptazyme ON/OFF ratio” value was 1.1.

For U7G G9C U11A C13G, the “aptazyme ON/OFF ratio” value worked out at 1.19.

Consider U7A U8C U10G C13A, for which the “aptazyme ON/OFF ratio” value was 1.4.

For U7A U8G G9C C12G C13G, the “aptazyme ON/OFF ratio” value came to 1.18.

Regarding U7G U8G G9U U10G C12U, the “aptazyme ON/OFF ratio” value was 1.13.

In the case of U7A U8C U10A U11A C12G C13A, the “aptazyme ON/OFF ratio” value came out at 1.11.

For U10G U11C C12U, the “aptazyme ON/OFF ratio” value came out at 1.08.

As for U7G U8C G9U U11A C12A C13G, the “aptazyme ON/OFF ratio” value is 1.14.

As to G9A U10A U11G C13U, the “aptazyme ON/OFF ratio” value is 1.51.

Turning to U10A U11A C12U, the “aptazyme ON/OFF ratio” value was found to be 1.64.

Consider U7A U8C U10G C12G, for which the “aptazyme ON/OFF ratio” value turned out to be 1.12.

As for U10A U11A C13A, the “aptazyme ON/OFF ratio” value was found to be 1.31.

In the case of U7A U8C G9C U10G U11A C12G, the “aptazyme ON/OFF ratio” value worked out at 1.11.

In the case of U7G U8G G9A U10A U11C, the “aptazyme ON/OFF ratio” value came out at 1.02.

Regarding U8G G9C U10C U11G C13A, the “aptazyme ON/OFF ratio” value worked out at 1.17.

As for G9U U10A U11G C12A C13U, the “aptazyme ON/OFF ratio” value is 1.25.

Take U8C G9C U10C U11A C12G C13U: the “aptazyme ON/OFF ratio” value was 1.1.

For the variant U8A G9C U10A C12G C13U, the “aptazyme ON/OFF ratio” value turned out to be 1.14.

As for U7G U8G G9U U10A U11A C13U, the “aptazyme ON/OFF ratio” value was 1.28.

For the variant U7A G9A U10G U11G C12G C13G, the “aptazyme ON/OFF ratio” value was determined as 1.09.

For the variant U7C G9C U10G U11C C13A, the “aptazyme ON/OFF ratio” value is 1.1.

Consider U7A U10A U11G, for which the “aptazyme ON/OFF ratio” value came out at 1.35.

Take U8C G9A U10C U11G C12G C13U: the “aptazyme ON/OFF ratio” value was 1.14.

As for U8A G9A U10G U11C C12G C13U, the “aptazyme ON/OFF ratio” value was 1.18.

Regarding U7G U8G G9C U10C U11C C12U C13U, the “aptazyme ON/OFF ratio” value was determined as 1.06.

As for U7G U8G G9U U10G U11C C12G C13A, the “aptazyme ON/OFF ratio” value is 1.1.

Regarding U8A G9C U10C, the “aptazyme ON/OFF ratio” value was 1.35.

For U8A G9C U10C C12A, the “aptazyme ON/OFF ratio” value was found to be 1.04.

Consider U7A U8G G9A U10C U11C C12U C13G, for which the “aptazyme ON/OFF ratio” value was found to be 1.08.

As to U7G U8G G9A U10G U11C C12G, the “aptazyme ON/OFF ratio” value stood at 1.26.

In the case of U7A U8A U10G C12G C13G, the “aptazyme ON/OFF ratio” value amounted to 0.977.

Consider U8A G9C U10C U11G C12A C13A, for which the “aptazyme ON/OFF ratio” value is 1.06.

As to U7C G9C U10C C13G, the “aptazyme ON/OFF ratio” value is 1.04.

Consider G9C U10C C12A C13G, for which the “aptazyme ON/OFF ratio” value was determined as 1.06.

Regarding G9A U10A U11C C13G, the “aptazyme ON/OFF ratio” value came out at 1.09.

For the variant U8G G9C U10A C13G, the “aptazyme ON/OFF ratio” value was determined as 1.06.

Take U7A U10G U11C C12U: the “aptazyme ON/OFF ratio” value was found to be 1.09.

As for U7A U8C G9A U10A U11G C12A, the “aptazyme ON/OFF ratio” value worked out at 1.06.

For U7A U8C G9U U10A U11G C12A C13A, the “aptazyme ON/OFF ratio” value was 1.08.

With U7C U8C G9C U10C C12A C13G, the “aptazyme ON/OFF ratio” value is 1.07.

For U7C U8C G9C U10C C12A C13U, the “aptazyme ON/OFF ratio” value is 1.1.

Regarding U7A U8C G9A U11C C12U C13G, the “aptazyme ON/OFF ratio” value was 1.16.

For G9A C13U, the “aptazyme ON/OFF ratio” value is 1.52.

For the variant U7A U8C U10C U11A C12U C13A, the “aptazyme ON/OFF ratio” value was 1.21.

As for U7C U8C G9C U10A U11C C13G, the “aptazyme ON/OFF ratio” value amounted to 1.1.

U8C U10G U11C C12U: the “aptazyme ON/OFF ratio” value worked out at 1.21.

Regarding U7A U8A U10A U11C C12G C13G, the “aptazyme ON/OFF ratio” value was 1.24.

Take U7C G9U U10C U11C C12A C13U: the “aptazyme ON/OFF ratio” value worked out at 1.01.

In the case of U7C U8G G9C U11C C12G C13U, the “aptazyme ON/OFF ratio” value is 1.27.

Turning to U7G U8C G9A U10A C12A, the “aptazyme ON/OFF ratio” value came to 1.15.

As for U7G U8C G9U U10C U11G C12U C13A, the “aptazyme ON/OFF ratio” value turned out to be 1.34.

Turning to U7C G9C U10A C12G C13U, the “aptazyme ON/OFF ratio” value is 1.12.

For the variant U8G G9C U10C C12A, the “aptazyme ON/OFF ratio” value was determined as 1.05.

For the variant U7C U10C C12U C13U, the “aptazyme ON/OFF ratio” value is 1.36.

As to U8C G9A U10C C12U, the “aptazyme ON/OFF ratio” value came to 1.95.

For U7A G9U U11G C12U C13A, the “aptazyme ON/OFF ratio” value worked out at 1.35.

Regarding U8G G9C U10A U11C C12A, the “aptazyme ON/OFF ratio” value was 1.12.

For the variant U8C G9C U10G U11C C13G, the “aptazyme ON/OFF ratio” value is 1.22.

U7C U8C G9U U10A U11C C12A: the “aptazyme ON/OFF ratio” value is 1.19.

On to U7G U8C G9U U10A U11G C12G, for which the “aptazyme ON/OFF ratio” value was 1.19.

On to U7G U8C G9U U10G U11A C12U, for which the “aptazyme ON/OFF ratio” value stood at 1.1.

As to U8G G9C U11C C12U, the “aptazyme ON/OFF ratio” value came out at 1.04.

Consider U8A G9A U10A U11C C12A, for which the “aptazyme ON/OFF ratio” value worked out at 1.09.

U7A G9U U11G C13G: the “aptazyme ON/OFF ratio” value was 1.04.

With G9C U10G U11A C13A, the “aptazyme ON/OFF ratio” value is 1.08.

U7A U8A G9C U10A U11C C12A C13U: the “aptazyme ON/OFF ratio” value stood at 1.2.

Take U7G U10G U11A C12U C13A: the “aptazyme ON/OFF ratio” value was 1.1.

Take U7G U10G U11A C12U C13G: the “aptazyme ON/OFF ratio” value worked out at 1.16.

For U7A U8A G9A U11G C12A, the “aptazyme ON/OFF ratio” value amounted to 1.11.

Turning to U8C G9U U10A C12G, the “aptazyme ON/OFF ratio” value turned out to be 1.27.

As for G9U U10G C12U C13A, the “aptazyme ON/OFF ratio” value is 1.35.
